Here are results for two sequences from article PMC12196904.

In this data set the target is T1, OsARF25 B3 domain (OsARF25 123-243-GST) (Oryza sativa) (UniProt Q2QM84).
T1 sequence: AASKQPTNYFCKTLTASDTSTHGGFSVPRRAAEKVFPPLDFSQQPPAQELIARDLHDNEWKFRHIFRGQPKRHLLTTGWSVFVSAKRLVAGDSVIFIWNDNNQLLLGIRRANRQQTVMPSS
Briefly: EMSA. The following applies: 20 uL: 50 ng probe, 2 ug protein, 2 uL 10x buffer (100 mM Tris, 500 mM KCl, 10 mM DTT, pH 7.5) plus 1 uL each of 1 M KCl, 50% glycerol, 0.5 M EDTA. (In general: A gel shift assay detects complexes by their altered migration in electrophoresis.)

As for “TGATGAATTGAAAAGCTTGAATTCACTTCACATGCCGGCCACAATTACGGCGTTATTAGGCGGGACATGGGCATAGGAAAACCGGAAAGGTGTCCAAGGCGTTGCAGAGAATGTAGTGTGTCGGTCATAGGCTGCAAGCGAGTGCACTCCCACTTGCACCCAGGGATATATATTATCGTCATGCATGTGCCTTATGCTCTTGTCAAGCAATATTTTTTGGCAAGGCATGTGCTCTGTATGTATATAAAACTC (double strand) [proSG1 probe]”, the binding result is “binds”.
On to “GAGTTTTATATACATACAGAGCACATGCGGCATCAATGAGCAACAGGGTTTGCATGCGTTGCTGCTGCTTGAGTTCTAGTATTAGTATTTTTATTTCATCTTAATGCTTGAGCCAATAGTTCCTGAGCTGAGACATGTGCAGAAGTATCTCGTCTCGGCCTTGATTGGTGACACTGCTCGTCATGATCCAAGGGGGTGCTGCCTCAAAATATTCACGGATCGAATTCAAGCTTTTCAATTCATCA (double strand) [proOsOFP04 probe]”, for which the binding result is “binds”.
